A short description of the data set: protein stability index of a GFP-peptide fusion (GPS, HEK-293T) (PSI 1-6); higher = more stable.
The mark [1] stands for this setting: treatment: DMSO, c terminus: a fixed tail appended.
Where [2] appears, read: treatment: MLN4924 1 uM, 8 h, c terminus: a fixed tail appended.
Where [3] appears, read: treatment: DMSO, c terminus: native.
Setting [4] is: treatment: MLN4924 1 uM, 8 h, c terminus: native.

± gives the standard deviation.
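Also: 24-mer peptide tiles fused after GFP, lentivirally expressed, FACS-sorted into six equal bins by GFP/DsRed ratio, decoded by Illumina sequencing, PSI is the read-weighted mean bin number.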

With LGMVGLFGTIISGIQLLIVEYKDI [SLC35F2], the protein stability index came to 3.16 ± 0.42 under setting [1] and 3.53 ± 0.41 under setting [2].
For LGRFSLTPAEGDTEEDDGFVDILE [CDC25B], in that order: 4.66 ± 0.74 and 5.06 ± 0.1.
For LGSKHKVCMDLRANLKQVKKEDTE [TNNI2], in that order: 4.76 ± 0.16 and 4.94 ± 0.23.
For LHDCAESGSLEILQLLLGCKARME [FEM1A], in that order: 2.41 ± 0.31 and 2.52 ± 0.29.
For the sequence LIESEAPPKASEQETAKEEDGSVE [C18orf25], the protein stability index reads like this: under setting [1], 5.59 ± 0.31; under setting [2], 5.77 ± 0.26.
Taken in the same sequence, the figures for LIGAAAFLGGVVRMTISLTVILIE [CLCN6] were 3.27 ± 0.53 and 2.75 ± 1.3.
For LIIQAGIKEVIFMSDKYHDSDEAT [DCTD], in that order: 2.16 ± 0.28 and 2.08 ± 0.089.
For LKENNFQPYPLPHVRHMAYQLCHA [CLK3], in that order: 2.46 ± 0.12 and 2.21 ± 0.26.
As for LKQLKHPNLVNLIEVFRRKRKMHL [CDKL4], the protein stability index runs as follows: under setting [1], 2.44 ± 0.43; under setting [2], 2.58 ± 0.3.
For LKRSIPQVSPVRRAPSRRHGVRAK [CPN1], in that order: 4.58 ± 0.23 and 4.67 ± 0.17.
Taken in the same sequence, the figures for LKTQSLEGKRKAFYTCASHVTVVI [OR4A15] were 2.91 ± 0.35 and 3.24 ± 0.46.
Taken in the same sequence, the figures for LLAWRCTKLSLLAIHGYTVWAHNL [FBXO33] were 3.15 ± 0.21 and 3.13 ± 0.34.
Take LLDHNANIDIQNGFLLRYAVIKSN [ASB7]: the protein stability index amounted to 2.53 ± 0.17 under setting [1] and 2.14 ± 0.2 under setting [2].
Taken in the same sequence, the figures for LLDLQPDFSSGGAAAAAAPAPPPP [SNAP91] were 4.68 ± 0.23 and 4.77 ± 0.22.
For LLEKDYFGLTYRDAENQKNWLDPA [EPB41L3], in that order: 3.1 ± 0.29 and 3.48 ± 0.29.
For LLFDMTTHPVTNTTEKQRLVKKLQ [GOLPH3L], in that order: 2.61 ± 0.26 and 2.83 ± 0.41.
Regarding LLFMTSRVRFGQQKRYQDWFQRQY [INTS3], the protein stability index was found to be 1.99 ± 0.58 under setting [1] and 2.24 ± 0.64 under setting [2].
Taken in the same sequence, the figures for LLRQQLMRAQAQEQERRERREQAA [TFE3] were 3.82 ± 0.27 and 4.2 ± 0.15.
For the sequence LLSGAFKKRRLPPVHIHPAFARQA [FOXJ1], the protein stability index reads like this: under setting [1], 2.21 ± 0.1; under setting [2], 2.54 ± 0.36.
In the case of LLVFLILVGIFILAVSRPRSSPDD [SCARA5], the protein stability index is 2.08 ± 0.43 under setting [1] and 2.07 ± 0.19 under setting [2].
Taken in the same sequence, the figures for LLYKDGFSTILHLLLGSPHPAATA [LPCAT4] were 2.71 ± 0.28 and 2.57 ± 0.54.
For LNEMRDQYEKMAEKNRKDAEDWFF [KRT17], in that order: 4.14 ± 0.2 and 4.1 ± 0.19.
For LNLGSGTGYLSSMVGLILGPFGVN [PCMTD2], in that order: 2.42 ± 0.51 and 2.48 ± 0.38.
As for LNLGSGTGYLSTMVGLILGPFGIN [PCMTD1], the protein stability index runs as follows: under setting [1], 3.33 ± 0.73; under setting [2], 2.87 ± 0.49.
For LNRRNGSLRIALSEHLKQRREVAK [EDNRA], in that order: 3.27 ± 0.45 and 3.25 ± 0.27.
Taken in the same sequence, the figures for LNVGNERYVFEAVIRWIAHDTEIR [GAN] were 2.53 ± 0.57 and 2.61 ± 0.56.
Taken in the same sequence, the figures for LPELLLGALPVGSNLTSNLASLVS [RETREG3] were 2.17 ± 0.2 and 2.17 ± 0.28.
Consider LPEQVDIIISEPMGYMLFNERMLE [CARM1], for which the protein stability index is, setting by setting: under setting [1], 2.24 ± 0.69; under setting [2], 2.12 ± 0.42.
As for LPFKPFAIILPILLNIRVATKYV [MIA2], the protein stability index under setting [3] amounted to 2.42 ± 0.81 and the protein stability index under setting [4] was 3.36 ± 1.6.
On to LPLLSPKFLVGTVGSDPLIKSDEE [KLHL20], for which the protein stability index reads like this: under setting [1], 4.33 ± 0.051; under setting [2], 4.43 ± 0.073.
Sequence LPRGATAAVLAPDSSNASSEPSS [SEPHS2] registered a protein stability index under setting [3] of 5.31 ± 0.21 and a protein stability index under setting [4] of 5.53 ± 0.17.
As for LQAIKAAIMLLPDENREVLQTLLY [DLC1], the protein stability index is, setting by setting: under setting [1], 2.23 ± 0.42; under setting [2], 2.22 ± 0.16.
For LQALDPQQCVDKESSLGSESEEEE [SLC22A15], in that order: 5.56 ± 0.28 and 5.59 ± 0.1.
Consider LQAQVQYQQQHEQQKKDLEILHQQ [SASS6], for which the protein stability index is, setting by setting: under setting [1], 4.73 ± 0.14; under setting [2], 4.93 ± 0.19.
Taken in the same sequence, the figures for LQLEACGMRRKSLLTRKVICKSDA [GOLPH3] were 2.95 ± 0.58 and 3.07 ± 0.43.
In the case of LQQLRARLQGLEADCVRGPDGVCL [PBXIP1], the protein stability index came to 2.7 ± 0.29 under setting [1] and 3.01 ± 0.35 under setting [2].
Taken in the same sequence, the figures for LQRGEALSALDSKANNLSSLSKKY [SEC22B] were 4.46 ± 0.11 and 4.34 ± 0.23.
Taken in the same sequence, the figures for LQSAPDVKGRVRCLTAGPEVAAQL [ZSWIM9] were 3.51 ± 0.28 and 3.6 ± 0.058.
For LQVTEDVNSSIKTFFCPNDTYNDM [CLCN6], in that order: 3.66 ± 0.22 and 3.65 ± 0.25.
On to LRALGAQIEKTTNREACRDLSGRR [SDE2], for which the protein stability index runs as follows: under setting [1], 4.21 ± 0.15; under setting [2], 4.48 ± 0.26.
Taken in the same sequence, the figures for LRGGGQVLLGWTLHYFPFFLMGRV [POMT2] were 3.01 ± 0.44 and 2.99 ± 0.37.
Taken in the same sequence, the figures for LRHFFLVEDLVDSLKLALLFYILT [RTN2] were 2.79 ± 0.79 and 2.45 ± 0.15.
For LRIPEGPIDQGPAIGRVRVLEEQL [FUT8], in that order: 3.69 ± 0.37 and 3.85 ± 0.19.
As to LRQQLVVSKELRMYDEKAHEWKSL [KLHL13], the protein stability index reads like this: under setting [1], 2.93 ± 0.11; under setting [2], 2.98 ± 0.15.
For LRRAWFSWPRASPASGASSIKPEA [SCNN1D], in that order: 2.99 ± 0.18 and 3.04 ± 0.19.
For LRVHLKMVDSFHRTSLQYGIMCLK [PPFIA4], in that order: 2.99 ± 0.047 and 2.9 ± 1.
Taken in the same sequence, the figures for LSKEYWDCLEGKKSKHAPRGTHLW [ELF3] were 2.82 ± 0.45 and 3.17 ± 0.24.
Take LSNLTHVLYPVPLESYEDIHGTLH [PRAME]: the protein stability index under setting [1] worked out at 2.5 ± 0.3 and the protein stability index under setting [2] worked out at 2.69 ± 0.27.
For LSQALNGLSDRAKEAKEFLVQLRN [TRIM9], in that order: 3.29 ± 0.41 and 3.26 ± 0.32.
Taken in the same sequence, the figures for LSVDPEEEREEGPPRIPQADQWKS [RHOBTB1] were 5.28 ± 0.075 and 5.26 ± 0.24.
Taken in the same sequence, the figures for LTCALMLLNTDLHGHNIGKKMSCQ [PSD2] were 2.54 ± 0.49 and 2.41 ± 0.74.
Consider LTFFAFLHCWLNAFAEMLRFGDRM [SOAT1], for which the protein stability index came out at 3.4 ± 0.23 under setting [1] and 2.9 ± 0.5 under setting [2].
For LTFLTKQEILLAHRRFCELLPQEQ [CIB1], in that order: 2.4 ± 0.44 and 2.55 ± 0.19.
For LTIMPYNSAHHCVVEVENFLFVLG [KLHL14], in that order: 3.26 ± 0.64 and 3.02 ± 0.32.
Taken in the same sequence, the figures for LTSADRETAEEVSARIVQVVTAEA [MAP2] were 4.86 ± 0.28 and 4.89 ± 0.42.
On to LTTFQDQLNRRGEFIQEIRRQLEA [OAS1], for which the protein stability index reads like this: under setting [1], 3.3 ± 0.35; under setting [2], 3.29 ± 0.27.
As for LTVLPKLQARERGEEQVELSTIEE [C2CD2L], the protein stability index under setting [1] turned out to be 5.14 ± 0.17 and the protein stability index under setting [2] was determined as 4.96 ± 0.54.
For LVDQVTGVSRGVGFIRFDKRIEAE [ELAVL3], in that order: 2.97 ± 0.52 and 2.88 ± 0.62.
Taken in the same sequence, the figures for LVGLTVIGAFLNLVVLRFLTMNSE [KCNK9] were 3.42 ± 0.46 and 3.42 ± 0.25.
For LVHVMERSLSPSLSSVDMRMTSSP [RAD54B], in that order: 2.51 ± 0.34 and 2.58 ± 0.36.
LVQVESVNLQVATYSKFQPQSPDF [UFD1]: the protein stability index is, setting by setting: under setting [1], 2.32 ± 0.22; under setting [2], 2.35 ± 0.32.
Taken in the same sequence, the figures for LVRDWSFPYEYSYGLQGGMAFLDK [ATL3] were 1.96 ± 0.23 and 2.19 ± 0.38.
Taken in the same sequence, the figures for LVVAVAAVSCVFLAFVIVLLAHRL [PCDHGA10] were 2.9 ± 0.83 and 2.83 ± 0.15.
Taken in the same sequence, the figures for LYGLGSGSSYVQNGTGNAYEEEAN [CNOT7] were 4.74 ± 0.2 and 4.84 ± 0.24.
With LYLNLALHLASDFFLKHPDKDVRL [PDS5B], the protein stability index stood at 2.73 ± 0.41 under setting [1] and 3.29 ± 0.27 under setting [2].
Taken in the same sequence, the figures for LYPREGKYNHAACFGLQPGCLLPD [NLN] were 2.96 ± 0.33 and 3.1 ± 0.44.
On to MAAGGRMEDGSLDITQSIEDDPLL [TMEM192], for which the protein stability index stood at 4.7 ± 0.29 under setting [1] and 4.87 ± 0.16 under setting [2].
For MAAGGSGVGGKRSSKSDADSGFLG [NOP53], in that order: 3.57 ± 0.22 and 3.96 ± 0.12.
For MDGATLCNCALEELRLVFGPLGDQ [ELF3], in that order: 2.33 ± 0.27 and 2.4 ± 0.68.
For MEGLAGYVYKAASEGKVLTLAALL [FEM1B], in that order: 2.22 ± 0.31 and 2.09 ± 0.44.
Take MEKSSFTEYIESPDVENEVKRLLR [TAF7L]: the protein stability index by setting is: under setting [1], 3.79 ± 0.28; under setting [2], 3.83 ± 0.23.
As to MENKSLESSQTDLKLVAHPRAKSK [ZBED1], the protein stability index is, setting by setting: under setting [1], 5.26 ± 0.29; under setting [2], 5.27 ± 0.25.

The values are drawn from the supplement of paper PMC10567573.
